Literature values in paper PMC10974892.
pKd: −log10 of the molar value.

Key:
PhoE (Escherichia coli) = PhoE (Escherichia coli) (UniProt P02932)
[1] = target: intelectin-1 (hIntL-1) (Homo sapiens) (UniProt Q8WWA0)
OmpC (Escherichia coli) = OmpC (Escherichia coli) (UniProt P06996)
UniProt P06996, sequence (P06996 22-367): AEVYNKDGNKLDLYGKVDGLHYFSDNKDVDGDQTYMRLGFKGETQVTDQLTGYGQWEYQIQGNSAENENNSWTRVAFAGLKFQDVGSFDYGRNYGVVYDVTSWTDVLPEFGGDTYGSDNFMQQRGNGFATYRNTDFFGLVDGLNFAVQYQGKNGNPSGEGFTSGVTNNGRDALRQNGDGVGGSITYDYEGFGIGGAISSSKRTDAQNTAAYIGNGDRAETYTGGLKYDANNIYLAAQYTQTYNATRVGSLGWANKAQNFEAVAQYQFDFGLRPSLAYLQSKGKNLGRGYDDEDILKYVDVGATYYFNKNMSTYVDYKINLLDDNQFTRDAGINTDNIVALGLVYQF

UniProt P02932, sequence (P02932 22-351): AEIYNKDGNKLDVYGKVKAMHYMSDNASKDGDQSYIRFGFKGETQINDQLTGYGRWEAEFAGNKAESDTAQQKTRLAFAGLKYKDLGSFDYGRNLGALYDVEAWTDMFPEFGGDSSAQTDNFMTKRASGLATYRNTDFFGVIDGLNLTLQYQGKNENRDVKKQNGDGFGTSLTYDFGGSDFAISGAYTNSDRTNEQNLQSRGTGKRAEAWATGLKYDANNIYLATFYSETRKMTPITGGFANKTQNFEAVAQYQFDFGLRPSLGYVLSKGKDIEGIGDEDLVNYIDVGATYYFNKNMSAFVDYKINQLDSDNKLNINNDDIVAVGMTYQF
UniProt Q8WWA0, sequence (Q8WWA0 19-298): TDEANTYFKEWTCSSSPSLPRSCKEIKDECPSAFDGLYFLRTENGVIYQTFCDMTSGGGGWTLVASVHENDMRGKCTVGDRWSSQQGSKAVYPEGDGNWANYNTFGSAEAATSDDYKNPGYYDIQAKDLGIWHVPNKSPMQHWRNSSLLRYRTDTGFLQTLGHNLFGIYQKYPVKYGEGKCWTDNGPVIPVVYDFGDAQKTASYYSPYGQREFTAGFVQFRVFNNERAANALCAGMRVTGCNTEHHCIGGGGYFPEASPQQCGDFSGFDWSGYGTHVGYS

For lactoferrin (from UniProt P02788), the pKd (PhoE (Escherichia coli)) is given as 6.99, the pKd [1] is given as 6.30 and the pKd (OmpC (Escherichia coli)) is given as 7.41.
